Results as given in article PMC12102759 (2025).

B1: PIP5K1C peptide 642-657 (Phosphatidylinositol 4-phosphate 5-kinase type-1 gamma), 16-mer library wild type / TLN1 PTB (TLN1 Phosphotyrosine-binding (PTB) domain, residues 309-401) (parent complex)
chain 1: TDERSWVYSPLHYSAQ
chain 2: GVSFFLVKEKMKGKNKLVPRLLGITKECVMRVDEKTKEVIQEWNLTNIKRWAASPKSFTLDFGDYQDGYYSVQTTEGEQIAQLIAGYIDIILK

Variants of: B1
Test: proteomic peptide phage display deep mutational scan (ProP-PD DMS): M13 P8 16-mer library selected against immobilised GST-tagged bait for four days (rounds), NGS of the eluted pools per day and pseudo-replica; bait immobilised on MaxiSorp plates (10 µg), library pre-cleared on GST, 2 h binding at 4 °C, five washes; one round per day, days 1-4; value from days 2 and 3

With chain 1 Y13S as the variant, how does the screen value read?
The screen value was 0.00787 average fractional NGS count over selection days 2 and 3 (reads of this peptide / all reads for the bait, averaged over ….

chain 1 E3N was tested. Which screen value did it give?
The screen value was 0.00147 average fractional NGS count over selection days 2 and 3 (reads of this peptide / all reads for the bait, averaged over ….

For chain 1 S14Y, which screen value is on record?
The screen value was 0.00168 average fractional NGS count over selection days 2 and 3 (reads of this peptide / all reads for the bait, averaged over ….

chain 1 Y8V was tested. Which screen value did it give?
The screen value was 0.0101 average fractional NGS count over selection days 2 and 3 (reads of this peptide / all reads for the bait, averaged over ….

How did the screen value turn out when chain 1 V7M was run?
Its screen value is 0.0016 average fractional NGS count over selection days 2 and 3 (reads of this peptide / all reads for the bait, averaged over ….

chain 1 Y8K was tested. Which screen value did it give?
The screen value was 0.00106 average fractional NGS count over selection days 2 and 3 (reads of this peptide / all reads for the bait, averaged over ….

How did the screen value turn out when chain 1 H12M was run?
Its screen value is 0.0016 average fractional NGS count over selection days 2 and 3 (reads of this peptide / all reads for the bait, averaged over ….

For chain 1 S5T, which screen value is on record?
The screen value was 0.0143 average fractional NGS count over selection days 2 and 3 (reads of this peptide / all reads for the bait, averaged over ….

chain 1 Y13V was tested. Which screen value did it give?
The screen value was 0.0012 average fractional NGS count over selection days 2 and 3 (reads of this peptide / all reads for the bait, averaged over ….

With chain 1 T1V as the variant, how does the screen value read?
Its screen value is 0.00105 average fractional NGS count over selection days 2 and 3 (reads of this peptide / all reads for the bait, averaged over ….

For chain 1 T1H, which screen value is on record?
The screen value was 0.000767 average fractional NGS count over selection days 2 and 3 (reads of this peptide / all reads for the bait, averaged over ….

Which screen value does the source give for chain 1 Y13K here?
The screen value was 0.000613 average fractional NGS count over selection days 2 and 3 (reads of this peptide / all reads for the bait, averaged over ….

For chain 1 P10R, which screen value is on record?
Its screen value is 0.000767 average fractional NGS count over selection days 2 and 3 (reads of this peptide / all reads for the bait, averaged over ….

How did the screen value turn out when chain 1 A15D was run?
The screen value was 0.00285 average fractional NGS count over selection days 2 and 3 (reads of this peptide / all reads for the bait, averaged over ….

Which screen value does the source give for chain 1 H12F here?
Its screen value is 0.00153 average fractional NGS count over selection days 2 and 3 (reads of this peptide / all reads for the bait, averaged over ….

Which screen value does the source give for chain 1 R4P here?
The screen value was 0.000771 average fractional NGS count over selection days 2 and 3 (reads of this peptide / all reads for the bait, averaged over ….

With chain 1 D2S as the variant, how does the screen value read?
Its screen value is 0.00166 average fractional NGS count over selection days 2 and 3 (reads of this peptide / all reads for the bait, averaged over ….

With chain 1 E3P as the variant, how does the screen value read?
Its screen value is 0.000178 average fractional NGS count over selection days 2 and 3 (reads of this peptide / all reads for the bait, averaged over ….

For chain 1 Y8Q, which screen value is on record?
Its screen value is 0.00124 average fractional NGS count over selection days 2 and 3 (reads of this peptide / all reads for the bait, averaged over ….

With chain 1 V7K as the variant, how does the screen value read?
Its screen value is 0.00287 average fractional NGS count over selection days 2 and 3 (reads of this peptide / all reads for the bait, averaged over ….

How did the screen value turn out when chain 1 Y13N was run?
The screen value was 0.00437 average fractional NGS count over selection days 2 and 3 (reads of this peptide / all reads for the bait, averaged over ….

With chain 1 Y8N as the variant, how does the screen value read?
The screen value was 0.00782 average fractional NGS count over selection days 2 and 3 (reads of this peptide / all reads for the bait, averaged over ….

Which screen value does the source give for chain 1 S5E here?
Its screen value is 0.00528 average fractional NGS count over selection days 2 and 3 (reads of this peptide / all reads for the bait, averaged over ….

For chain 1 P10F, which screen value is on record?
Its screen value is 0.0019 average fractional NGS count over selection days 2 and 3 (reads of this peptide / all reads for the bait, averaged over ….

With chain 1 P10Q as the variant, how does the screen value read?
Its screen value is 0.001 average fractional NGS count over selection days 2 and 3 (reads of this peptide / all reads for the bait, averaged over ….

For chain 1 Y13L, which screen value is on record?
The screen value was 0.00182 average fractional NGS count over selection days 2 and 3 (reads of this peptide / all reads for the bait, averaged over ….

chain 1 L11H was tested. Which screen value did it give?
Its screen value is 0.000309 average fractional NGS count over selection days 2 and 3 (reads of this peptide / all reads for the bait, averaged over ….

With chain 1 Y13Q as the variant, how does the screen value read?
Its screen value is 0.00224 average fractional NGS count over selection days 2 and 3 (reads of this peptide / all reads for the bait, averaged over ….

Which screen value does the source give for chain 1 A15G here?
The screen value was 0.000489 average fractional NGS count over selection days 2 and 3 (reads of this peptide / all reads for the bait, averaged over ….

For chain 1 T1N, which screen value is on record?
Its screen value is 0.00021 average fractional NGS count over selection days 2 and 3 (reads of this peptide / all reads for the bait, averaged over ….

chain 1 P10L was tested. Which screen value did it give?
The screen value was 0.00637 average fractional NGS count over selection days 2 and 3 (reads of this peptide / all reads for the bait, averaged over ….

How did the screen value turn out when chain 1 T1L was run?
Its screen value is 0.000574 average fractional NGS count over selection days 2 and 3 (reads of this peptide / all reads for the bait, averaged over ….

chain 1 D2I was tested. Which screen value did it give?
The screen value was 0.000155 average fractional NGS count over selection days 2 and 3 (reads of this peptide / all reads for the bait, averaged over ….

How did the screen value turn out when chain 1 A15P was run?
Its screen value is 0.00282 average fractional NGS count over selection days 2 and 3 (reads of this peptide / all reads for the bait, averaged over ….

chain 1 P10K was tested. Which screen value did it give?
The screen value was 0.00642 average fractional NGS count over selection days 2 and 3 (reads of this peptide / all reads for the bait, averaged over ….

For chain 1 P10Y, which screen value is on record?
Its screen value is 0.000349 average fractional NGS count over selection days 2 and 3 (reads of this peptide / all reads for the bait, averaged over ….

Which screen value does the source give for chain 1 P10D here?
The screen value was 0.00117 average fractional NGS count over selection days 2 and 3 (reads of this peptide / all reads for the bait, averaged over ….

How did the screen value turn out when chain 1 H12V was run?
The screen value was 0.00311 average fractional NGS count over selection days 2 and 3 (reads of this peptide / all reads for the bait, averaged over ….

With chain 1 D2W as the variant, how does the screen value read?
Its screen value is 0.0007 average fractional NGS count over selection days 2 and 3 (reads of this peptide / all reads for the bait, averaged over ….

How did the screen value turn out when chain 1 E3Y was run?
The screen value was 0.00103 average fractional NGS count over selection days 2 and 3 (reads of this peptide / all reads for the bait, averaged over ….

Which screen value does the source give for chain 1 E3I here?
The screen value was 0.00159 average fractional NGS count over selection days 2 and 3 (reads of this peptide / all reads for the bait, averaged over ….

With chain 1 E3T as the variant, how does the screen value read?
The screen value was 0.00106 average fractional NGS count over selection days 2 and 3 (reads of this peptide / all reads for the bait, averaged over ….

For chain 1 W6P, which screen value is on record?
The screen value was 0.000161 average fractional NGS count over selection days 2 and 3 (reads of this peptide / all reads for the bait, averaged over ….

Which screen value does the source give for chain 1 E3M here?
The screen value was 0.0019 average fractional NGS count over selection days 2 and 3 (reads of this peptide / all reads for the bait, averaged over ….

Which screen value does the source give for chain 1 D2Y here?
The screen value was 0.000691 average fractional NGS count over selection days 2 and 3 (reads of this peptide / all reads for the bait, averaged over ….

Which screen value does the source give for chain 1 E3A here?
Its screen value is 0.000271 average fractional NGS count over selection days 2 and 3 (reads of this peptide / all reads for the bait, averaged over ….

For chain 1 Y13R, which screen value is on record?
Its screen value is 0.00043 average fractional NGS count over selection days 2 and 3 (reads of this peptide / all reads for the bait, averaged over ….

chain 1 R4W was tested. Which screen value did it give?
Its screen value is 0.000409 average fractional NGS count over selection days 2 and 3 (reads of this peptide / all reads for the bait, averaged over ….

chain 1 E3F was tested. Which screen value did it give?
Its screen value is 0.00327 average fractional NGS count over selection days 2 and 3 (reads of this peptide / all reads for the bait, averaged over ….

Which screen value does the source give for chain 1 A15M here?
The screen value was 0.00017 average fractional NGS count over selection days 2 and 3 (reads of this peptide / all reads for the bait, averaged over ….

Which screen value does the source give for chain 1 L11F here?
The screen value was 0.000354 average fractional NGS count over selection days 2 and 3 (reads of this peptide / all reads for the bait, averaged over ….

How did the screen value turn out when chain 1 P10T was run?
Its screen value is 0.00133 average fractional NGS count over selection days 2 and 3 (reads of this peptide / all reads for the bait, averaged over ….

With chain 1 P10A as the variant, how does the screen value read?
The screen value was 0.00236 average fractional NGS count over selection days 2 and 3 (reads of this peptide / all reads for the bait, averaged over ….

With chain 1 Y8L as the variant, how does the screen value read?
Its screen value is 0.0129 average fractional NGS count over selection days 2 and 3 (reads of this peptide / all reads for the bait, averaged over ….

For chain 1 P10E, which screen value is on record?
Its screen value is 0.000515 average fractional NGS count over selection days 2 and 3 (reads of this peptide / all reads for the bait, averaged over ….

chain 1 Y8W was tested. Which screen value did it give?
The screen value was 0.004 average fractional NGS count over selection days 2 and 3 (reads of this peptide / all reads for the bait, averaged over ….

Which screen value does the source give for chain 1 R4A here?
The screen value was 0.00627 average fractional NGS count over selection days 2 and 3 (reads of this peptide / all reads for the bait, averaged over ….

How did the screen value turn out when chain 1 D2V was run?
Its screen value is 0.00155 average fractional NGS count over selection days 2 and 3 (reads of this peptide / all reads for the bait, averaged over ….

How did the screen value turn out when chain 1 L11A was run?
The screen value was 0.000511 average fractional NGS count over selection days 2 and 3 (reads of this peptide / all reads for the bait, averaged over ….

Which screen value does the source give for chain 1 S9A here?
Its screen value is 0.000707 average fractional NGS count over selection days 2 and 3 (reads of this peptide / all reads for the bait, averaged over ….

chain 1 V7D was tested. Which screen value did it give?
Its screen value is 0.000439 average fractional NGS count over selection days 2 and 3 (reads of this peptide / all reads for the bait, averaged over ….

Which screen value does the source give for chain 1 L11T here?
Its screen value is 0.00178 average fractional NGS count over selection days 2 and 3 (reads of this peptide / all reads for the bait, averaged over ….

How did the screen value turn out when chain 1 E3G was run?
The screen value was 0.00191 average fractional NGS count over selection days 2 and 3 (reads of this peptide / all reads for the bait, averaged over ….

For chain 1 Y8G, which screen value is on record?
Its screen value is 0.000458 average fractional NGS count over selection days 2 and 3 (reads of this peptide / all reads for the bait, averaged over ….

For chain 1 S14Q, which screen value is on record?
The screen value was 0.00119 average fractional NGS count over selection days 2 and 3 (reads of this peptide / all reads for the bait, averaged over ….

chain 1 S14R was tested. Which screen value did it give?
Its screen value is 0.000219 average fractional NGS count over selection days 2 and 3 (reads of this peptide / all reads for the bait, averaged over ….

With chain 1 V7Y as the variant, how does the screen value read?
The screen value was 0.00645 average fractional NGS count over selection days 2 and 3 (reads of this peptide / all reads for the bait, averaged over ….

Which screen value does the source give for chain 1 E3S here?
The screen value was 0.00226 average fractional NGS count over selection days 2 and 3 (reads of this peptide / all reads for the bait, averaged over ….

How did the screen value turn out when chain 1 L11V was run?
Its screen value is 0.00105 average fractional NGS count over selection days 2 and 3 (reads of this peptide / all reads for the bait, averaged over ….

How did the screen value turn out when chain 1 Y8M was run?
Its screen value is 0.00363 average fractional NGS count over selection days 2 and 3 (reads of this peptide / all reads for the bait, averaged over ….

For chain 1 Y8T, which screen value is on record?
The screen value was 0.0121 average fractional NGS count over selection days 2 and 3 (reads of this peptide / all reads for the bait, averaged over ….

With chain 1 V7T as the variant, how does the screen value read?
The screen value was 0.0104 average fractional NGS count over selection days 2 and 3 (reads of this peptide / all reads for the bait, averaged over ….

For chain 1 T1K, which screen value is on record?
Its screen value is 0.001 average fractional NGS count over selection days 2 and 3 (reads of this peptide / all reads for the bait, averaged over ….

With chain 1 T1G as the variant, how does the screen value read?
Its screen value is 0.00259 average fractional NGS count over selection days 2 and 3 (reads of this peptide / all reads for the bait, averaged over ….

With chain 1 V7L as the variant, how does the screen value read?
Its screen value is 0.0042 average fractional NGS count over selection days 2 and 3 (reads of this peptide / all reads for the bait, averaged over ….
